Data reported in patent publication US20250197889.

Experiments:
[1] = test system: certain anti-CRISPRs
[2] = test system: AcrIIC5Smu
[3] = test system: AcrE2
[4] = test system: AcrIIC1Nme
[5] = test system: AcrIIC2Nme
[6] = test system: AcrIIC3Nme
[7] = test system: AcrIIC4Hpa

## SmuCas9 (Simonsiella muelleri Cas9)
[1]
  Type II-C Cas9 ortholog cleavage tested for sensitivity to anti-CRISPR proteins: all three Type II-C Cas9 orthologs are inhibited by certain anti-CRISPRs

## Nme1Cas9-Nme2Cas9PID chimera
[2]
  in vitro cleavage by the Nme1Cas9-Nme2Cas9PID chimera in the presence of Acr: no inhibition by AcrIIC5Smu on this protein chimera was observed

## Nme2Cas9 (Neisseria meningitidis strain De10444/De11444 Cas9), recombinant purified protein
[3]
  in vitro cleavage of a target DNA by Cas9-sgRNA (10:1 ratio of Acr:Cas9): Nme2Cas9 efficiently cleaves a target containing a protospacer with an N4CC PAM in the presence of AcrE2 and AcrIIC5Smu
[4]
  in vitro cleavage of a target DNA by Cas9-sgRNA (10:1 Acr:Cas9 molar ratio): Acrs IIC1Nme, -IIC2Nme, -IIC3Nme and -IIC4Hpa inhibited Nme2Cas9 gene editing activity
[5]
  in vitro cleavage of a target DNA by Cas9-sgRNA (10:1 Acr:Cas9 molar ratio): Acrs IIC1Nme, -IIC2Nme, -IIC3Nme and -IIC4Hpa inhibited Nme2Cas9 gene editing activity
[6]
  in vitro cleavage of a target DNA by Cas9-sgRNA (10:1 Acr:Cas9 molar ratio): Acrs IIC1Nme, -IIC2Nme, -IIC3Nme and -IIC4Hpa inhibited Nme2Cas9 gene editing activity
[7]
  in vitro cleavage of a target DNA by Cas9-sgRNA (10:1 Acr:Cas9 molar ratio): Acrs IIC1Nme, -IIC2Nme, -IIC3Nme and -IIC4Hpa inhibited Nme2Cas9 gene editing activity
[2]
  in vitro cleavage of a target DNA by Cas9-sgRNA (10:1 Acr:Cas9 molar ratio): AcrIIC5Smu did not inhibit Nme2Cas9 in vitro even at 10-fold excess
